According to patent publication US20260273029A1, “DRY EYE TREATMENT” (Inoculus Ventures, LLC, priority 2022, published 2026):

Key:
[1] = tested on: S. Aureus biofilms; test: Preliminary assessment of amylases on biofilms: prohibition of biofilm growth; type: cell-based; details: Table 1, preliminary assessment of activity on Biofilms
Text: (§1) Non-limiting examples of amylases contemplated by the disclosure and their preliminary assessment of their activity on Biofilms is listed on Table 1: […]

[2] = tested on: S. Aureus biofilms; details: existing data; cited from earlier work
[3] = tested on: S. Aureus biofilms; test: Preliminary assessment of amylases on biofilms: reduction of existing biofilm; type: cell-based; details: for Reduces Biofilm: Table 1, preliminary assessment of activity on Biofilms
Text: as §1

Molecule	Prohibits Biofilm Growth [1]	in-vitro effectiveness at the inhibition and reduction of S. Aureus biofilms [2]	Reduces Biofilm [3]	Reduces Biofilm, time ([3]; Table 1, reduces biofilm only after this time) [h]
α-Amylase from human saliva: α-amylase from human saliva (Sigma, catalog #A1031) (protein, UniProt P0DUB6 16-511, looked up) Alpha-amylase 1A: QYSSNTQQGRTSIVHLFEWRWVDIALECERYLAPKGFGGVQVSPPNENVAIHNPFRPWWERYQPVSYKLCTRSGNEDEFRNMVTRCNNVGVRIYVDAVINHMCGNAVSAGTSSTCGSYFNPGSRDFPAVPYSGWDFNDGKCKTGSGDIENYNDATQVRDCRLSGLLDLALGKDYVRSKIAEYMNHLIDIGVAGFRIDASKHMWPGDIKAILDKLHNLNSNWFPEGSKPFIYQEVIDLGGEPIKSSDYFGNGRVTEFKYGAKLGTVIRKWNGEKMSYLKNWGEGWGFMPSDRALVFVDNHDNQRGHGAGGASILTFWDARLYKMAVGFMLAHPYGFTRVMSSYRWPRYFENGKDVNDWVGPPNDNGVTKEVTINPDTTCGNDWVCEHRWRQIRNMVNFRNVVDGQPFTNWYDNGSNQVAFGRGNRGFIVFNNDDWTFSLTLQTGLPAGTYCDVISGDKINGNCTGIKIYVSDDGKAHFSISNSAEDPFIAIHAESKL	Yes	certain in-vitro effectiveness	No	
α-Amylase from Bacillus subtilis: α-amylase from Bacillus subtilis (Sigma, catalog #10070) (protein, UniProt P00691 42-659, looked up) Alpha-amylase: LTAPSIKSGTILHAWNWSFNTLKHNMKDIHDAGYTAIQTSPINQVKEGNQGDKSMSNWYWLYQPTSYQIGNRYLGTEQEFKEMCAAAEEYGIKVIVDAVINHTTSDYAAISNEVKSIPNWTHGNTQIKNWSDRWDVTQNSLLGLYDWNTQNTQVQSYLKRFLDRALNDGADGFRFDAAKHIELPDDGSYGSQFWPNITNTSAEFQYGEILQDSASRDAAYANYMDVTASNYGHSIRSALKNRNLGVSNISHYASDVSADKLVTWVESHDTYANDDEESTWMSDDDIRLGWAVIASRSGSTPLFFSRPEGGGNGVRFPGKSQIGDRGSALFEDQAITAVNRFHNVMAGQPEELSNPNGNNQIFMNQRGSHGVVLANAGSSSVSINTATKLPDGRYDNKAGAGSFQVNDGKLTGTINARSVAVLYPDDIAKAPHVFLENYKTGVTHSFNDQLTITLRADANTTKAVYQINNGPETAFKDGDQFTIGKGDPFGKTYTIMLKGTNSDGVTRTEKYSFVKRDPASAKTIGYQNPNHWSQVNAYIYKHDGSRVIELTGSWPGKPMTKNADGIYTLTLPADTDTTNAKVIFNNGSAQVPGQNQPGFDYVLNGLYNDSGLSGSLPH	Yes	certain in-vitro effectiveness		≥ 3
β-Amylase from sweet potato: β-Amylase from sweet potato, Sigma Aldrich research grade (protein, UniProt P10537 2-499, looked up) Beta-amylase: APIPGVMPIGNYVSLYVMLPLGVVNADNVFPDKEKVEDELKQVKAGGCDGVMVDVWWGIIEAKGPKQYDWSAYRELFQLVKKCGLKIQAIMSFHQCGGNVGDAVFIPIPQWILQIGDKNPDIFYTNRAGNRNQEYLSLGVDNQRLFQGRTALEMYRDFMESFRDNMADFLKAGDIVDIEVGCGAAGELRYPSYPETQGWVFPGIGEFQCYDKYMVADWKEAVKQAGNADWEMPGKGAGTYNDTPDKTEFFRPNGTYKTDMGKFFLTWYSNKLIIHGDQVLEEANKVFVGLRVNIAAKVSGIHWWYNHVSHAAELTAGFYNVAGRDGYRPIARMLARHHATLNFTCLEMRDSEQPAEAKSAPQELVQQVLSSGWKEYIDVAGENALPRYDATAYNQMLLNVRPNGVNLNGPPKLKMSGLTYLRLSDDLLQTDNFELFKKFVKKMHADLDPSPNAISPAVLERSNSAITIDELMEATKGSRPFPWYDVTDMPVDGSNPFD	Partially	certain in-vitro effectiveness	No	
